In the supplement of paper PMC10126150:
± gives the standard deviation of the averaged measurements.

Tested on: ATP
Test: switch fluorescence ratio, 500 uM ATP over buffer (Cy3 cluster intensity, sum of 5 cycles each) (fold (ratio)); higher = stronger signal-on switching upon ATP binding; sequences stand for … in TCGTCGGCAGCGTCAGATGTGTATAAGAGACAGTTTTTTTTTTTTTTTTTTTTTTTTT…TC
Details: aptamer strand: ATP DNA aptamer (quencher-CACCTGGGGGAGTATTGCGGAGGAAGG + anchor), 100 nM annealed; ATP concentration: 500 uM
Summary of the method: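 Values give the fluorescence ratio for each switch-domain sequence, averaged from per-cluster ratios of summed target-cycle to summed buffer-cycle Cy3 intensity. The Cy3-labelled switching-strand clusters sat on a modified Illumina MiSeq flow-cell, were annealed to 100 nM quencher-labelled ATP aptamer, and were imaged in selection buffer, then after 15 min with 500 uM ATP at 22 °C. Five cycles ran with NaOH stripping and re-annealing between them, and clusters outside 100-1000 RFU were excluded.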
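Also: ATP exposure 15 min at 22 °C before imaging.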

Sequence | switch fluorescence ratio
TTAGGGTTTT | 1.04 ± 0.067
TTAGGTAATA | 1 ± 0.022
TTAGGTACGA | 1.05 ± 0.011
TTAGGTAGTT | 0.971 ± 0.051
TTAGGTATTA | 0.9912 ± 0.0036
TTAGGTGGCG | 1.04 ± 0.018
TTAGGTGGG | 0.989 ± 0.024
TTAGGTTAAA | 1.06 ± 0.12
TTAGGTTAGG | 0.9765 ± 0.0064
TTAGGTTGGT | 1 ± 0.065
TTAGTAAAGG | 1.01 ± 0.041
TTAGTAGTTT | 0.976 ± 0.015
TTAGTATCGG | 0.999 ± 0.052
TTAGTATCTC | 1.03 ± 0.047
TTAGTATTCT | 0.992 ± 0.031
TTAGTCATGC | 1.09 ± 0.12
TTAGTCCTTT | 1.03 ± 0.058
TTAGTCGTCG | 1 ± 0.06
TTAGTCTGGG | 1 ± 0.039
TTAGTGAGCG | 1.03 ± 0.012
TTAGTGCCGG | 0.994 ± 0.016
TTAGTGGCTA | 1.019 ± 0.0087
TTAGTGGGGT | 1.01 ± 0.028
TTAGTTACGA | 1.04 ± 0.014
TTAGTTTCTA | 0.99394 ± 0.00081

Sequence | switch fluorescence ratio
TTAGTTTGAA | 0.968 ± 0.012
TTATAAAGAT | 0.992 ± 0.035
TTATAAATTT | 1.29 ± 0.45
TTATAAGTGT | 0.963 ± 0.035
TTATAATACT | 1.04 ± 0.019
TTATAATATT | 1.03 ± 0.025
TTATAATTTG | 1.02 ± 0.032
TTATACATT | 1.02 ± 0.075
TTATAGATAG | 0.999 ± 0.018
TTATAGATTG | 1 ± 0.019
TTATAGGCGG | 0.981 ± 0.016
TTATAGGGTT | 0.991 ± 0.041
TTATAGTTGG | 0.98 ± 0.023
TTATATAGGT | 0.9738 ± 0.0054
TTATATATTG | 0.969 ± 0.029
TTATCAAAGC | 0.992 ± 0.033
TTATCAAAGG | 0.986 ± 0.014
TTATCAACAC | 1.09 ± 0.13
TTATCAGCAC | 1.136 ± 0.0044
TTATCATATA | 1.06 ± 0.057
TTATCCAAAG | 0.966 ± 0.016
TTATCCGGAT | 0.933 ± 0.11
TTATCCTTTA | 1.02 ± 0.012
TTATCGAATT | 1 ± 0.025
TTATCGTCGG | 0.978 ± 0.04

Sequence | switch fluorescence ratio
TTATCTCACT | 1.06 ± 0.014
TTATCTGGGC | 0.9757 ± 0.0037
TTATCTGTAA | 1.01 ± 0.051
TTATCTTGGT | 1 ± 0.015
TTATCTTGTT | 0.988 ± 0.03
TTATGAAATT | 1.01 ± 0.04
TTATGAGCGT | 1 ± 0.014
TTATGAGTCG | 0.979 ± 0.032
TTATGATAGC | 0.965 ± 0.044
TTATGCTTCT | 1.01 ± 0.053
TTATGGACGT | 1.01 ± 0.02
TTATGGCCTA | 1.01 ± 0.017
TTATGGCTAT | 0.991 ± 0.031
TTATGGGTCT | 1 ± 0.036
TTATGGGTTT | 1 ± 0.036
TTATGGTAGC | 0.995 ± 0.015
TTATGGTTAG | 1.008 ± 0.0092
TTATGGTTAT | 1.03 ± 0.015
TTATGGTTCG | 0.954 ± 0.013
TTATGTAGTA | 1 ± 0.019
TTATGTTTAG | 0.976 ± 0.045
TTATTAAATA | 0.98 ± 0.016
TTATTAAGTT | 1.01 ± 0.027
TTATTAATTT | 1 ± 0.03
TTATTACGGA | 1.03 ± 0.013

Sequence | switch fluorescence ratio
TTATTATATG | 0.971 ± 0.022
TTATTATCAG | 1.013 ± 0.0021
TTATTCAGTC | 0.98 ± 0.046
TTATTCATTT | 1.001 ± 0.01
TTATTCCCGA | 0.9791 ± 0.0095
TTATTCCCGT | 0.985 ± 0.064
TTATTCCTAT | 1.02 ± 0.021
TTATTCGGCT | 1.08 ± 0.05
TTATTCTCGG | 1.04 ± 0.068
TTATTGAAGC | 0.983 ± 0.028
TTATTGAGGT | 0.981 ± 0.012
TTATTGATGG | 0.99 ± 0.019
TTATTGGACT | 1.02 ± 0.019
TTATTGGAGG | 0.9918 ± 0.0077
TTATTGGCTT | 0.9895 ± 0.0037
TTATTGGGAT | 0.981 ± 0.033
TTATTGGGGG | 0.982 ± 0.037
TTATTGGGTT | 0.995 ± 0.017
TTATTGGTA | 1.04 ± 0.016
TTATTGTACT | 1.008 ± 0.0073
TTATTGTTTA | 0.99 ± 0.029
TTATTTAAGG | 1.01 ± 0.031
TTATTTAGGC | 1.12 ± 0.055
TTATTTCGCG | 0.986 ± 0.041
TTATTTCGGG | 0.973 ± 0.013

Sequence | switch fluorescence ratio
TTATTTGCAT | 0.994 ± 0.013
TTATTTGGGT | 1 ± 0.021
TTATTTGTAC | 1.052 ± 0.0021
TTATTTGTCA | 0.989 ± 0.013
TTATTTTAGT | 1 ± 0.017
TTATTTTCGG | 0.994 ± 0.019
TTATTTTTTT | 1 ± 0.033
TTCAAAGATG | 0.9743 ± 0.0021
TTCAAGGCGG | 1.01 ± 0.014
TTCAAGGGCA | 1.01 ± 0.027
TTCAAGGGTG | 1.11 ± 0.024
TTCAAGTTTT | 1.02 ± 0.063
TTCAATCCCG | 0.991 ± 0.069
TTCAATGTCG | 1.05 ± 0.024
TTCAATTCCG | 1.03 ± 0.092
TTCAATTGGA | 1 ± 0.042
TTCACCACTT | 1.01 ± 0.025
TTCACCCGGT | 1.11 ± 0.12
TTCACCCTTT | 1.02 ± 0.049
TTCACGGCCT | 1.03 ± 0.018
TTCACGGTTG | 1.04 ± 0.061
TTCACGTTTT | 1.03 ± 0.087
TTCAGAAAGA | 0.998 ± 0.023
TTCAGACTAT | 1.01 ± 0.027
TTCAGAGCTT | 1 ± 0.035

Sequence | switch fluorescence ratio
TTCAGAGGAT | 1.02 ± 0.048
TTCAGAGTTT | 0.978 ± 0.014
TTCAGCGGGA | 0.992 ± 0.019
TTCAGGAGGA | 1.03 ± 0.011
TTCAGGGATG | 0.9822 ± 0.0028
TTCAGGTCGT | 0.992 ± 0.052
TTCAGGTTAG | 1.01 ± 0.027
TTCAGGTTGG | 1.08 ± 0.082
TTCAGTAGAG | 1.03 ± 0.024
TTCAGTGATT | 1 ± 0.022
TTCAGTGTGG | 0.971 ± 0.022
TTCAGTTCGG | 0.9942 ± 0.0016
TTCAGTTGCA | 1.01 ± 0.024
TTCAGTTTGG | 1.01 ± 0.038
TTCATACGGG | 1.03 ± 0.04
TTCATAGTTC | 0.986 ± 0.013
TTCATATTTT | 0.996 ± 0.015
TTCATCGACT | 0.996 ± 0.047
TTCATCTCGC | 1.1 ± 0.1
TTCATGGTTT | 1.01 ± 0.028
TTCATGTTGG | 0.998 ± 0.019
TTCATTAGCT | 1 ± 0.025
TTCATTTATT | 0.9904 ± 0.0055
TTCATTTGAG | 0.995 ± 0.021
TTCATTTTGC | 1.02 ± 0.015

Sequence | switch fluorescence ratio
TTCCAAAATG | 1.005 ± 0.0081
TTCCAAATCC | 1.01 ± 0.056
TTCCACATCC | 1.07 ± 0.044
TTCCACGCGG | 1.268 ± 0.0091
TTCCAGATTT | 1.02 ± 0.062
TTCCAGGTTC | 1.04 ± 0.012
TTCCAGTTTT | 1 ± 0.04
TTCCATCCAT | 1.0067 ± 0.00069
TTCCATCGCC | 1.53 ± 0.14
TTCCATCGGG | 0.993 ± 0.033
TTCCATGCGG | 1.02 ± 0.037
TTCCATTAGT | 1.01 ± 0.035
TTCCCAGTGT | 1.87 ± 0.053
TTCCCATTTA | 1.04 ± 0.02
TTCCCGTTGA | 1.14 ± 0.027
TTCCCTAAGG | 2.35 ± 1.7
TTCCGGAAGT | 1.04 ± 0.04
TTCCGGATGG | 1.01 ± 0.021
TTCCGGGACG | 1.027 ± 0.0033
TTCCGGGTAT | 1.07 ± 0.03
TTCCGGGTGT | 1.66 ± 0.75
TTCCGTCTTC | 1.09 ± 0.11
TTCCTAAAAG | 0.979 ± 0.011
TTCCTAATT | 1.03 ± 0.033
TTCCTGCTTG | 1.36 ± 0.6

Sequence | switch fluorescence ratio
TTCCTGGGGA | 0.9943 ± 0.0077
TTCCTGGGTT | 1.002 ± 0.0097
TTCCTGGTCA | 0.997 ± 0.012
TTCCTTCTTT | 1.08 ± 0.061
TTCGAAGATT | 1 ± 0.051
TTCGAAGGCT | 0.995 ± 0.017
TTCGAATATT | 1.13 ± 0.26
TTCGACGAGG | 0.996 ± 0.022
TTCGAGTGCC | 0.991 ± 0.013
TTCGATGCGG | 1.02 ± 0.036
TTCGATGGAA | 1.06 ± 0.0038
TTCGATGGTG | 0.987 ± 0.0044
TTCGATTCGA | 0.961 ± 0.011
TTCGATTGTG | 0.9867 ± 0.0088
TTCGATTTTT | 0.981 ± 0.048
TTCGCAACGG | 1.22 ± 0.34
TTCGCCGGTT | 1.02 ± 0.0021
TTCGCGTAGA | 1.01 ± 0.014
TTCGGAACGG | 0.991 ± 0.027
TTCGGACCCG | 0.976 ± 0.01
TTCGGACCTT | 1.21 ± 0.021
TTCGGAGTCA | 1.1 ± 0.019
TTCGGATAGT | 0.98 ± 0.011
TTCGGCGGGC | 1 ± 0.027
TTCGGCGTTG | 0.972 ± 0.02
